# Tests used:
# [1] = target: GST [GST: P08515]
# [2] = target: GST-2.5 fusion protein [GST: P08515]
protein,measurement,setting,value
Rat SAPKβ (protein) MSLHFLYYCSEPTLDVKIAFCQGFDKHVDVSSVVKHYNMSKSKVDNQFYSVEVGDSTFTVLKRYQNLKPIGSGAQGIVCAAYDAVLDRNVAIKKLSRPFQNQTHAKRAYRELVLMKCVNHKNIISLLNVFTPQKTLEEFQDVYLVMELMDANLCQVIQMELDHERMSYLLYQMLCGIKHLHSAGIIHRDLKPSNIVVKSDCTLKILDFGLARTAGTSFMMTPYVVTRYYRAPEVILGMGYKENVDIWSVGCIMGEMVRHKILFPGRDYIDQWNKVIEQLGTPCPEFMKKLQPTVRNYVENRPKYAGLTFPKLFPDSLFPADSEHNKLKASQARDLLSKMLVIDPAKRISVDDALQHPYINVWYDPAEVEAPPPQIYDKQLDEREHTIEEWKELIYKEVMNSEEKTKNGVVKGQPSPSGAAVNSSESLPPSSSVNDISSMSTDQTLASDTDSSLEASAGPLGCCR,phosphorylation of GST-c-Jun in a kinase reaction with c-Jun and rSAPKβ,[1],GST alone shows no effect.
same,"in vitro kinase assay, phosphorylation of protein 2.5",[2],Rat SAPKβ ... phosphorylates protein 2.5
same,in vitro phosphorylation assay,[2],hJIP1/IB1 is a substrate for JNK3 in the same in vitro phosphorylation assay
same,in vitro phosphorylation of a GST c-Jun fusion protein,[2],this protein greatly reduces phosphorylation of a GST c-Jun fusion protein in a concentration dependent manner
same,phosphorylation of GST-c-Jun in a kinase reaction with c-Jun and rSAPKβ,[2],protein 2.5 shows a dose-dependent inhibition of phosphorylation of GST-c-Jun
